Assay results from patent US12618845B2, “Methods and compositions for protein sequencing” (Quantum-Si Incorporated, priority 2018, dated 2026).
Read-outs that look alike come from different tables or passages of the source.

Tested on: peptide substrates
Type: biochemical

B1: VPr: Vibrio proteolyticus aminopeptidase (protein)
chain: MPPITQQATVTAWLPQVDASQITGTISSLESFTNRFYTTTSGAQASDWIASEWQALSASLPNASVKQVSHSGYNQKSVVMTITGSEAPDEWIVIGGHLDSTIGSHTNEQSVAPGADDDASGIAAVTEVIRVLSENNFQPKRSIAFMAYAAEEVGLRGSQDLANQYKSEGKNVVSALQLDMTNYKGSAQDVVFITDYTDSNFTQYLTQLMDEYLPSLTYGFDTCGYACSDHASWHNAGYPAAMPFESKFNDYNPRIHTTQDTLANSDPTGSHAKKFTQLGLAYAIEMGSATGDTPTPGNQ
In the case of B1, the “HPLC Assay Conv” value (substrate […]1 (SEQ ID NO: 11), 600 μM Peptide, 0.08 μM enzyme, 10 mM 5Mg(OAc)2, 0 mM MOPS pH 8, 60 mM KOAc, RT/0.5 hr) is reported as 5%, the “HPLC Assay Conv” value (substrate […]1 (SEQ ID NO: 11), 600 μM Peptide, 0.8 μM enzyme, 10 mM Mg(OAc)2, 50 mM MOPS pH 8, 60 mM KOAc, RT/0.5 hr) is reported as 50% and the “HPLC Assay Conv” value (substrate […]1 (SEQ ID NO: 11), 600 μM Peptide, 8 μM enzyme, 10 mM Mg(OAc)2, 50 mM MOPS pH 8, 60 mM KOAc, RT/0.5 hr) is reported as 100%. The “HPLC Assay Conv” value (substrate […]1 (SEQ ID NO: 11), 600 μM Peptide, 8 μM enzyme, 10 mM Mg(OAc)2, 50 mM MOPS pH 8, RT/0.5 hr) was 100%, the “HPLC Assay Conv” value (substrate […]1 (SEQ ID NO: 13), 300 μM Peptide, 8 μM enzyme, 10 mM Mg(OAc)2, 50 mM MOPS pH 8, 60 mM KOAc, 37° C./2 hr) was 100% and the “HPLC Assay Conv” value (substrate […]1 (SEQ ID NO: 13), 300 μM Peptide, 8 μM enzyme, 10 mM Mg(OAc)2, 50 mM MOPS pH 8, 60 mM KOAc, RT/0.5 hr) was 70%. The “HPLC Assay Conv” value (substrate […]1 (SEQ ID NO: 13), 300 μM Peptide, 8 μM enzyme, 10 mM Mg(OAc)2, 50 mM MOPS pH 8, 60 mM KOAc, RT/2 hr) was 100%, the “HPLC Assay Conv” value (substrate […]1 (SEQ ID NO: 13), 300 μM Peptide, 8 μM enzyme, 10 mM Mg(OAc)2, 50 mM MOPS pH 8, 0.2% Tween20, RT/0.5 hr) was 100% and the “HPLC Assay Conv” value (substrate […]1 (SEQ ID NO: 13), 300 μM Peptide, 8 μM enzyme, 10 mM Mg(OAc)2, 50 mM MOPS pH 8, RT/0.5 hr) was 100%. For the same molecule, the “HPLC Assay Conv” value (substrate […]1 (SEQ ID NO: 13), 300 μM Peptide, 8 μM enzyme, 50/50 MOPS Mg buffer/RB1, RT/0.5 hr) was 30%, the “HPLC Assay Conv” value (substrate […]1 (SEQ ID NO: 13), 300 μM Peptide, 8 μM enzyme, RB2 + Mg, RT/0.5 hr) was 5% and the “HPLC Assay Conv” value (substrate […]1 (SEQ ID NO: 13), 300 μM Peptide, 8 μM enzyme, RB4, RT/0.5 hr) was 100%. For the same molecule, the “HPLC Assay Conv” value (substrate […]1 (SEQ ID NO: 13), 600 μM Peptide, 8 μM enzyme, 10 mM Mg(OAc)2, 50 mM MOPS pH 8, RT/0.5 hr) was 100%, the “HPLC Assay Conv” value (substrate […]{LYSN3}NH2 (SEQ ID NO: 107), 200 μM Peptide, 4 μM enzyme, 10 mM MgCl2, 50 mM MOPS pH 8.0, 37° C./0.5 hr) was 100% and the “HPLC Assay Conv” value (substrate […]{LYSN3}NH2 (SEQ ID NO: 107), 200 μM Peptide, 4 μM enzyme, 10 mM MgCl2, 50 mM MOPS pH 8.0, 37° C./1 hr) was 100%. For the same molecule, the “HPLC Assay Conv” value (substrate […]{LYSN3}NH2 (SEQ ID NO: 107), 200 μM Peptide, 8 μM enzyme, 10 mM MgCl2, 50 mM MOPS pH 5.0, RT/0.5 hr) was 100%, the “HPLC Assay Conv” value (substrate […]{LYSN3}NH2 (SEQ ID NO: 107), 200 μM Peptide, 8 μM enzyme, 10 mM MgCl2, 50 mM MOPS pH 5.0, RT/1 hr) was 100% and the “HPLC Assay Conv” value (substrate […]{LYSN3}NH2 (SEQ ID NO: 107), 300 μM Peptide, 4 μM enzyme, 10 mM MgCl2, 50 mM MOPS pH 8.0, 37° C./0.5 hr) was 100%. For the same molecule, the “HPLC Assay Conv” value (substrate […]{LYSN3}NH2 (SEQ ID NO: 107), 400 μM Peptide, 8 μM enzyme, 50 mM HEPES pH 8.0, 300 mM NaCl, 1 mM DTT, 5% Glycerol, 32 mM PCA, 37° C./1 hr) was 100%, the “HPLC Assay Conv” value (substrate […]{LYSN3}NH2 (SEQ ID NO: 107), 600 μM Peptide, 0.8 μM enzyme, 10 mM Mg(OAc)2, 50 mM MOPS pH 5.5, RT/0.5 hr) was 100% and the “HPLC Assay Conv” value (substrate […]{LYSN3}NH2 (SEQ ID NO: 107), 600 μM Peptide, 0.8 μM enzyme, 10 mM Mg(OAc)2, 50 mM MOPS pH 6.5, RT/0.5 hr) was 100%. For the same molecule, the “HPLC Assay Conv” value (substrate […]{LYSN3}NH2 (SEQ ID NO: 107), 600 μM Peptide, 0.8 μM enzyme, 10 mM Mg(OAc)2, 50 mM MOPS pH 7.5, RT/0.5 hr) was 100%, the “HPLC Assay Conv” value (substrate […]{LYSN3}NH2 (SEQ ID NO: 107), 600 μM Peptide, 0.8 μM enzyme, 10 mM Mg(OAc)2, 50 mM MOPS pH 8.5, RT/0.5 hr) was 100% and the “HPLC Assay Conv” value (substrate […]{LYSN3}NH2 (SEQ ID NO: 107), 1200 μM Peptide, 800 pM enzyme, 10 mM Mg(OAc)2, 50 mM MOPS pH 7.5, RT/0.5 hr) was 2.70%. The “HPLC Assay Conv” value (substrate […]{LYSN3}NH2 (SEQ ID NO: 107), 1200 μM Peptide, 800 pM enzyme, 10 mM Mg(OAc)2, 50 mM MOPS pH 8.5, RT/0.5 hr) was 6.80%, the “HPLC Assay Conv” value (substrate […]{LYSN3}NH2 (SEQ ID NO: 107), 1200 μM Peptide, 0.008 μM enzyme, 10 mM Mg(OAc)2, 50 mM MOPS pH 7.5, RT/0.5 hr) was 100% and the “HPLC Assay Conv” value (substrate […]{LYSN3}NH2 (SEQ ID NO: 107), 1200 μM Peptide, 0.008 μM enzyme, 10 mM Mg(OAc)2, 50 mM MOPS pH 8.5, RT/0.5 hr) was 100%. The “HPLC Assay Conv” value (substrate […]{LYSN3}NH2 (SEQ ID NO: 107), 1200 μM Peptide, 0.08 μM enzyme, 10 mM Mg(OAc)2, 50 mM MOPS pH 5.5, RT/0.5 hr) was 50%, the “HPLC Assay Conv” value (substrate […]{LYSN3}NH2 (SEQ ID NO: 107), 1200 μM Peptide, 0.08 μM enzyme, 10 mM Mg(OAc)2, 50 mM MOPS pH 6.5, RT/0.5 hr) was 100% and the “HPLC Assay Conv” value (substrate […]{LYSN3}NH2 (SEQ ID NO: 107), 1200 μM Peptide, 0.08 μM enzyme, 10 mM Mg(OAc)2, 50 mM MOPS pH 7.5, RT/0.5 hr) was 100%. For the same molecule, the “HPLC Assay Conv” value (substrate […]{LYSN3}NH2 (SEQ ID NO: 109), 300 μM Peptide, 4 μM enzyme, 10 mM MgCl2, 50 mM MOPS pH 8.0, 37° C./0.5 hr) was 100% and the “HPLC Assay Conv” value (substrate […]{LYSN3}NH2 (SEQ ID NO: X), 1200 μM Peptide, 0.08 μM enzyme, 10 mM Mg(OAc)2, 50 mM MOPS pH 8.5, RT/0.5 hr) was 100%.
